Data on one molecule can be found in patent publication US20160176973A1 (published 2016).

Holding throughout (assay): SPR (Biacore)
(Surface plasmon resonance follows binding to a sensor surface in real time, without labels.)

The target in test [1] is BCMA 101 x CD3.
Test [2] addresses BC 244-C6 x CD3.
Test [3] addresses BC 247-C3 x CD3.

B1: Human BCMA (receptor)
chain (part 1 of 2): MLQMAGQCSQNEYFDSLLHACIPCQLRCSSNTPPLTCQRYCNASVTNSVKGTNASGGGGSEAHKSEIAHRYNDLGEQHFKGLVLIAFSQYLQKCSYDEHAKLVQEVTDFAKTCVADESAANCDKSLHTLFGDKLCAIPNLRENYGELADCCTKQEPERNECFLQHKDDNPSLPPFERPEAEAMCTSFKENPTTFMGHYLHEVARRHPYFYAPELLYYAEQYNEILTQCCAEADKESCLTPKLDGVKEKALVSSVRQRMKCSSMQKFGERAFKAWAVARLSQTFPNADFAEITKLATDLTKVNKECCHGDLLECADDRAELAKYMCENQATISSKLQTCCDKPLLKKAHCLSEVEHDTMPADLPAIAADFVEDQEVCKNYAEAKDVFLGTFLYEYSRRHPDYSVSLLLRLAKKYEATLEKCCAEANPPACYGTVLAEFQPLVEEPKNLVKTNCDLYEKLGEYGFQNAILVRYTQKAPQVSTPTLVEAARNLGRVGTKCCTLPEDQRLPCVEDYLSAILNRVCLLHEKTPVSEHVTKCCSGSLVERRPCFSALTVDETYVPKEFKAETFTFHSDICTLPEKEKQIKKQTALAELVKHKPKATAEQLKTVMDDFAQFLDTCCKAADKDTCFSTEGPNLVTRCKDALA
chain (part 2 of 2): SGHHGGHHGGHH
One may read the Kd as the equilibrium constant for the complex coming apart. A high value points to lower affinity. On to B1, for which the Kd in test [1] came out at 0.5 nM; in test [2], 0.3 nM; in test [3] it was 0.4 nM.
